The values below come from paper PMC6033619 (ACS chemical neuroscience, 2018).

For test [1], the target named is CLuc-FGF14 (human) (human, UniProt Q92915 1-247). The experiment in a line: split reporter.
In test [2] the target is T1, FGF14^V160A (aa 64-252) (human) (UniProt Q92915).
T1 sequence: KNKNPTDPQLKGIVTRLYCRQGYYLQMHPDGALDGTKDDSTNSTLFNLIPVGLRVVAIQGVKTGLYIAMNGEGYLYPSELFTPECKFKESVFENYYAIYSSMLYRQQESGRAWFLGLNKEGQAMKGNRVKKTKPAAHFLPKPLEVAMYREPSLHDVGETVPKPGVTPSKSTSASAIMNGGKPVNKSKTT
Put plainly: SPR.

Test [3] addresses T2, FGF14^WT (aa 64-252) (human) (UniProt Q92915).
T2 sequence: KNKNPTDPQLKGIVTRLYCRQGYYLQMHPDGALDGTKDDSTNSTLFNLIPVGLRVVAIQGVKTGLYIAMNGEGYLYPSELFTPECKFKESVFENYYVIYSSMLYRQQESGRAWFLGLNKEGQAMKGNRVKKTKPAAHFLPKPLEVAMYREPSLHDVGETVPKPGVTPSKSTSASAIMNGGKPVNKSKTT
The experiment in a line: SPR.

*: point of attachment. Cbz = O=C(OCc1ccccc1)*; Boc = CC(C)(C)OC(=O)*

B1: ZL181 (Cbz-FLPK(Boc)-CONH2) (peptide)
peptide: Cbz-FLPK(Boc)-NH2
SMILES: CC(C)C[C@H](NC(=O)[C@H](Cc1ccccc1)NC(=O)OCc1ccccc1)C(=O)N1CCC[C@H]1C(=O)N[C@@H](CCCCNC(=O)OC(C)(C)C)C(N)=O
Regarding B1, inhibition in test [1] was half-maximal at 63 µM (IC50). Also, the values for the Kd in test [2] and in test [3] were 182 µM and 89.6 µM, respectively.
